Target: human GIP receptor (human) (UniProt P48546)
Experiment: cell-based or functional assay

Sequence of human GIP receptor (human) (P48546 22-466): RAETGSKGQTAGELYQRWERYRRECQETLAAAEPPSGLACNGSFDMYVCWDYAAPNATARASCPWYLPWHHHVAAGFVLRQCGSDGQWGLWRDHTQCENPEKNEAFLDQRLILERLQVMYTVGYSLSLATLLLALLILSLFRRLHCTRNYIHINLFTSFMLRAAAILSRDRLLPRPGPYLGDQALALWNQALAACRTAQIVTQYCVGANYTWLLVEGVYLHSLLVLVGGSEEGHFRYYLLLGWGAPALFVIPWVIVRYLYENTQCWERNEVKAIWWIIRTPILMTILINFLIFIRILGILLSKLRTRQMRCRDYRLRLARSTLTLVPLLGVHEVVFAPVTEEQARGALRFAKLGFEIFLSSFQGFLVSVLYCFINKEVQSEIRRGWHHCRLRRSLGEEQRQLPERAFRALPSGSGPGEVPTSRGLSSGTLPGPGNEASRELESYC

Substance: human GIP (1-42)NH2 (from UniProt P09681 52-93) (ligand)
- cAMP EC50 (0.1% casein): 0.154 nM
- cAMP EC50 (FBS and BSA present): 0.133 nM

Reference: patent US20250313605A1
